Assay results published in paper PMC11358308 (2024).
Where a chain is given by its changes, count along the chain named. Names and notes keep the numbering of the source.

T1: human B-cell maturation antigen (BCMA), extracellular domain (human, UniProt Q02223 1-54)
T1 chain: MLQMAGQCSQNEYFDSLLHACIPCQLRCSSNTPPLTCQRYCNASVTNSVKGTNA

B1: J22.9-FSY, humanized and CDR-optimized IgG (antibody, V domains shown)
VH: EVQLVESGGGLVQPGGSLRLSCAASGFTFSRYWFSWVRQAPGKGLVWVGEINPSSSTINYAPSLKDKFTISRDNAKNTLYLQMNSLRAEDTAVYYCASLYYDYGDAYDYWGQGTLVTVSS
VL: EIVMTQSPATLSVSPGERATLSCKASQSVESNVAWYQQKPGQAPRALIYSASLRFSGIPARFSGSGSGTEFTLTISSLQSEDFAVYYCQQYNNYPLTFGAGTKLELK
B2: J22.9-H, humanized IgG (all humanizing substitutions in VH and VL except A46L in VL) (antibody, V domains shown)
VH: B1 VH with F34M, S54D, Y107M
VL: B1 VL with E30D
B3: J22.9-ISY, humanized and CDR-optimized IgG (antibody, V domains shown)
VH: B1 VH with F34I
VL: B1 VL
B4: J22.9-xi, chimaeric mouse/human IgG (antibody, V domains shown)
VH: QVQLQQSGGGLVQPGGSLKLSCAASGIDFSRYWMSWVRRAPGKGLEWIGEINPDSSTINYAPSLKDKFIISRDNAKNTLYLQMSKVRSEDTALYYCASLYYDYGDAMDYWGQGTSVTVSS
VL: DIVMTQSQRFMTTSVGDRVSVTCKASQSVDSNVAWYQQKPRQSPKALIFSASLRFSGVPARFTGSGSGTDFTLTISNLQSEDLAEYFCQQYNNYPLTFGAGTKLELK

Tests used:
[1] = target: T1, human B-cell maturation antigen (BCMA), …; assay: SPR
cynomolgus BCMA = cynomolgus BCMA (cynomolgus monkey); assay: SPR
cynomolgus BCMA (cynomolgus monkey), sequence (chain, as listed by the source): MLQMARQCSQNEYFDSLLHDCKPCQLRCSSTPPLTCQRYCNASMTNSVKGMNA

Binder | Kd [1] [nM] | Kd (cynomolgus BCMA) [nM]
B1 | 2.2 | 20
B2 | – | 200
B3 | 2 | 17
B4 | – | 2.7
